The test system of the series is Escherichia coli TOP10. The series can be described thus: shrunken log2 fold change of peptide-encoding DNA abundance (4.5 h post-induction vs induction); higher = less antimicrobial activity (less host growth inhibition). The settings on record: time post-induction: 4.5 h; library: site-saturation at positions 5, 18, 19, 20.
For RRIRFRPPRLPRPRPRPWTYPRP, the “shrunken log2 fold change” value is -0.0132.

Turning to RRIRGRPPRLPRPRPRPMDGPRP, the “shrunken log2 fold change” value was -0.0481.

With RRIRHRPPRLPRPRPRPEDVPRP, the “shrunken log2 fold change” value is -0.00992.

Regarding RRIRVRPPRLPRPRPRPIRAPRP, the “shrunken log2 fold change” value is -0.109.

RRIRQRPPRLPRPRPRPMSAPRP: the “shrunken log2 fold change” value is -0.107.

Take RRIRQRPPRLPRPRPRPEEIPRP: the “shrunken log2 fold change” value was found to be 0.0447.

Take RRIRCRPPRLPRPRPRPLETPRP: the “shrunken log2 fold change” value is -0.012.

With RRIRLRPPRLPRPRPRPLAIPRP, the “shrunken log2 fold change” value came to 0.221.

As for RRIRGRPPRLPRPRPRPIHFPRP, the “shrunken log2 fold change” value is -0.252.

Regarding RRIRTRPPRLPRPRPRPASYPRP, the “shrunken log2 fold change” value is -0.347.

As for RRIRRRPPRLPRPRPRPMNWPRP, the “shrunken log2 fold change” value turned out to be 0.291.

RRIRERPPRLPRPRPRPAARPRP: the “shrunken log2 fold change” value was 0.226.

As for RRIRVRPPRLPRPRPRPPTTPRP, the “shrunken log2 fold change” value came to 0.47.

In the case of RRIRIRPPRLPRPRPRPLQAPRP, the “shrunken log2 fold change” value is 0.0546.

For the sequence RRIRNRPPRLPRPRPRPARRPRP, the “shrunken log2 fold change” value came out at 0.294.

As for RRIRSRPPRLPRPRPRPTVCPRP, the “shrunken log2 fold change” value turned out to be 0.0523.

On to RRIRVRPPRLPRPRPRPASHPRP, for which the “shrunken log2 fold change” value was found to be 0.0857.

On to RRIRNRPPRLPRPRPRPTRQPRP, for which the “shrunken log2 fold change” value was determined as 0.196.

Take RRIRYRPPRLPRPRPRPECAPRP: the “shrunken log2 fold change” value was -0.126.

With RRIRWRPPRLPRPRPRPITSPRP, the “shrunken log2 fold change” value is -0.122.

RRIRGRPPRLPRPRPRPPEIPRP: the “shrunken log2 fold change” value came to 0.851.

For RRIRARPPRLPRPRPRPSCGPRP, the “shrunken log2 fold change” value was 0.287.

As to RRIRERPPRLPRPRPRPPVNPRP, the “shrunken log2 fold change” value is 0.148.

Consider RRIRYRPPRLPRPRPRPWCYPRP, for which the “shrunken log2 fold change” value was -1.21.

Consider RRIRPRPPRLPRPRPRPMWNPRP, for which the “shrunken log2 fold change” value was -0.216.

Turning to RRIRWRPPRLPRPRPRPTCWPRP, the “shrunken log2 fold change” value amounted to 0.183.

Consider RRIRRRPPRLPRPRPRPKSRPRP, for which the “shrunken log2 fold change” value was 0.174.

For the sequence RRIRERPPRLPRPRPRPIMYPRP, the “shrunken log2 fold change” value is -1.08.

RRIRHRPPRLPRPRPRPQDLPRP: the “shrunken log2 fold change” value is -0.0414.

Regarding RRIRKRPPRLPRPRPRPYHYPRP, the “shrunken log2 fold change” value stood at 0.00414.

RRIRMRPPRLPRPRPRPADSPRP: the “shrunken log2 fold change” value came out at 0.264.

RRIRSRPPRLPRPRPRPSDQPRP: the “shrunken log2 fold change” value is -0.127.

As for RRIRLRPPRLPRPRPRPWQNPRP, the “shrunken log2 fold change” value is -0.195.

As to RRIRDRPPRLPRPRPRPYRVPRP, the “shrunken log2 fold change” value was -0.0135.

On to RRIRLRPPRLPRPRPRPYTCPRP, for which the “shrunken log2 fold change” value was -0.223.

On to RRIRLRPPRLPRPRPRPAWTPRP, for which the “shrunken log2 fold change” value was determined as 0.218.

As to RRIRYRPPRLPRPRPRPAVMPRP, the “shrunken log2 fold change” value is -0.231.

Turning to RRIRARPPRLPRPRPRPYRCPRP, the “shrunken log2 fold change” value was -0.174.

RRIRVRPPRLPRPRPRPSTIPRP: the “shrunken log2 fold change” value was -0.136.

Regarding RRIRTRPPRLPRPRPRPNNQPRP, the “shrunken log2 fold change” value is -0.665.

Take RRIRFRPPRLPRPRPRPLDHPRP: the “shrunken log2 fold change” value is -0.359.

RRIRDRPPRLPRPRPRPHEIPRP: the “shrunken log2 fold change” value is -0.0115.

With RRIRPRPPRLPRPRPRPPCMPRP, the “shrunken log2 fold change” value was -0.165.

With RRIRFRPPRLPRPRPRPHACPRP, the “shrunken log2 fold change” value was -0.867.

With RRIRTRPPRLPRPRPRPYGFPRP, the “shrunken log2 fold change” value was -0.315.

In the case of RRIRWRPPRLPRPRPRPEMFPRP, the “shrunken log2 fold change” value was 0.274.

As for RRIRARPPRLPRPRPRPPHHPRP, the “shrunken log2 fold change” value was found to be 0.675.

For the sequence RRIRYRPPRLPRPRPRPTHQPRP, the “shrunken log2 fold change” value was -0.161.

Consider RRIRSRPPRLPRPRPRPLHYPRP, for which the “shrunken log2 fold change” value is -0.908.

In the case of RRIRDRPPRLPRPRPRPSAKPRP, the “shrunken log2 fold change” value was 0.23.

Turning to RRIRARPPRLPRPRPRPTTHPRP, the “shrunken log2 fold change” value was determined as 0.38.

Regarding RRIRLRPPRLPRPRPRPIPNPRP, the “shrunken log2 fold change” value was -0.135.

With RRIRNRPPRLPRPRPRPTQMPRP, the “shrunken log2 fold change” value worked out at 0.0452.

Regarding RRIRGRPPRLPRPRPRPIQIPRP, the “shrunken log2 fold change” value was -0.0799.

In the case of RRIRLRPPRLPRPRPRPQMQPRP, the “shrunken log2 fold change” value worked out at 0.017.

Take RRIRPRPPRLPRPRPRPPRMPRP: the “shrunken log2 fold change” value came to 0.412.

As for RRIRTRPPRLPRPRPRPDHYPRP, the “shrunken log2 fold change” value was -0.66.

On to RRIRRRPPRLPRPRPRPVWVPRP, for which the “shrunken log2 fold change” value was 0.566.

In the case of RRIRPRPPRLPRPRPRPYYAPRP, the “shrunken log2 fold change” value is -0.709.

Consider RRIRMRPPRLPRPRPRPKYLPRP, for which the “shrunken log2 fold change” value is -0.278.

As for RRIRERPPRLPRPRPRPSRLPRP, the “shrunken log2 fold change” value is 0.0431.

Turning to RRIRFRPPRLPRPRPRPRMRPRP, the “shrunken log2 fold change” value worked out at 0.608.

On to RRIRQRPPRLPRPRPRPWIIPRP, for which the “shrunken log2 fold change” value was -0.329.

Take RRIRARPPRLPRPRPRPEQCPRP: the “shrunken log2 fold change” value was found to be 0.42.

Take RRIRGRPPRLPRPRPRPEMTPRP: the “shrunken log2 fold change” value came out at 3.26.

In the case of RRIRVRPPRLPRPRPRPMAEPRP, the “shrunken log2 fold change” value was found to be 2.52.

RRIRWRPPRLPRPRPRPCLAPRP: the “shrunken log2 fold change” value is 0.329.

For the sequence RRIRMRPPRLPRPRPRPYRDPRP, the “shrunken log2 fold change” value was -0.018.

For the sequence RRIRPRPPRLPRPRPRPTFKPRP, the “shrunken log2 fold change” value came to 0.0985.

With RRIRHRPPRLPRPRPRPRQVPRP, the “shrunken log2 fold change” value was -0.108.

Consider RRIRMRPPRLPRPRPRPQTTPRP, for which the “shrunken log2 fold change” value is 0.634.

RRIRFRPPRLPRPRPRPVIWPRP: the “shrunken log2 fold change” value was -0.0895.

As for RRIRQRPPRLPRPRPRPGLKPRP, the “shrunken log2 fold change” value is 0.0245.

As to RRIRHRPPRLPRPRPRPNRIPRP, the “shrunken log2 fold change” value is -0.46.

Consider RRIRVRPPRLPRPRPRPSSGPRP, for which the “shrunken log2 fold change” value is -0.39.

RRIRNRPPRLPRPRPRPDMFPRP: the “shrunken log2 fold change” value is -0.00166.

As to RRIRGRPPRLPRPRPRPAGAPRP, the “shrunken log2 fold change” value stood at 1.16.

Take RRIRIRPPRLPRPRPRPWHGPRP: the “shrunken log2 fold change” value is -0.0996.

For the sequence RRIRQRPPRLPRPRPRPIRQPRP, the “shrunken log2 fold change” value was determined as 0.0167.

As to RRIRRRPPRLPRPRPRPQTVPRP, the “shrunken log2 fold change” value is -0.0201.

For the sequence RRIRQRPPRLPRPRPRPCSWPRP, the “shrunken log2 fold change” value turned out to be 0.171.

As for RRIRFRPPRLPRPRPRPWQAPRP, the “shrunken log2 fold change” value came to 0.0155.

Take RRIRCRPPRLPRPRPRPDHNPRP: the “shrunken log2 fold change” value was -0.239.

As for RRIRERPPRLPRPRPRPTNNPRP, the “shrunken log2 fold change” value is -0.591.

As to RRIRQRPPRLPRPRPRPEHFPRP, the “shrunken log2 fold change” value was 0.0746.

Regarding RRIRMRPPRLPRPRPRPCGWPRP, the “shrunken log2 fold change” value came out at 1.03.

Take RRIRYRPPRLPRPRPRPDNSPRP: the “shrunken log2 fold change” value was -0.779.

Consider RRIRVRPPRLPRPRPRPNMNPRP, for which the “shrunken log2 fold change” value was -0.745.

Regarding RRIRWRPPRLPRPRPRPDEPPRP, the “shrunken log2 fold change” value was -0.00634.

On to RRIRIRPPRLPRPRPRPHNQPRP, for which the “shrunken log2 fold change” value was -0.528.

In the case of RRIRTRPPRLPRPRPRPSDCPRP, the “shrunken log2 fold change” value stood at 0.131.

In the case of RRIRARPPRLPRPRPRPQQLPRP, the “shrunken log2 fold change” value came out at 0.176.

For the sequence RRIRARPPRLPRPRPRPSVSPRP, the “shrunken log2 fold change” value was -0.457.

RRIRYRPPRLPRPRPRPSVHPRP: the “shrunken log2 fold change” value is -0.284.

RRIRFRPPRLPRPRPRPAKCPRP: the “shrunken log2 fold change” value is -0.00691.

In the case of RRIRLRPPRLPRPRPRPVFLPRP, the “shrunken log2 fold change” value is -0.207.

For the sequence RRIRRRPPRLPRPRPRPYCEPRP, the “shrunken log2 fold change” value is -0.102.

As to RRIRSRPPRLPRPRPRPGPEPRP, the “shrunken log2 fold change” value is 0.221.

Take RRIRYRPPRLPRPRPRPDGTPRP: the “shrunken log2 fold change” value was determined as 0.0319.

For the sequence RRIRNRPPRLPRPRPRPNRQPRP, the “shrunken log2 fold change” value was -0.156.

Take RRIRPRPPRLPRPRPRPHNEPRP: the “shrunken log2 fold change” value is -0.397.

As to RRIRERPPRLPRPRPRPARVPRP, the “shrunken log2 fold change” value is -0.505.

As to RRIRHRPPRLPRPRPRPQDIPRP, the “shrunken log2 fold change” value is -0.343.

As for RRIRHRPPRLPRPRPRPKHYPRP, the “shrunken log2 fold change” value is -0.577.

RRIRDRPPRLPRPRPRPCKSPRP: the “shrunken log2 fold change” value was -0.321.

For the sequence RRIRWRPPRLPRPRPRPCAVPRP, the “shrunken log2 fold change” value was found to be 0.198.

As to RRIRVRPPRLPRPRPRPNSLPRP, the “shrunken log2 fold change” value worked out at 0.0679.

Turning to RRIRGRPPRLPRPRPRPGMYPRP, the “shrunken log2 fold change” value was 0.191.

In the case of RRIRRRPPRLPRPRPRPDWSPRP, the “shrunken log2 fold change” value came out at 0.182.

Turning to RRIRKRPPRLPRPRPRPARMPRP, the “shrunken log2 fold change” value worked out at 0.905.

Consider RRIRKRPPRLPRPRPRPIVAPRP, for which the “shrunken log2 fold change” value came to 0.399.

On to RRIRFRPPRLPRPRPRPVSIPRP, for which the “shrunken log2 fold change” value was determined as 0.0109.

As for RRIRHRPPRLPRPRPRPAEFPRP, the “shrunken log2 fold change” value turned out to be 0.108.

Consider RRIRCRPPRLPRPRPRPMQLPRP, for which the “shrunken log2 fold change” value was -0.239.

RRIRLRPPRLPRPRPRPAGVPRP: the “shrunken log2 fold change” value is 0.103.

On to RRIRVRPPRLPRPRPRPEIRPRP, for which the “shrunken log2 fold change” value was determined as 0.173.

On to RRIRLRPPRLPRPRPRPYKQPRP, for which the “shrunken log2 fold change” value was -0.0145.

As for RRIRCRPPRLPRPRPRPHYLPRP, the “shrunken log2 fold change” value is -0.574.

For the sequence RRIRDRPPRLPRPRPRPAHSPRP, the “shrunken log2 fold change” value is -0.143.

Turning to RRIRIRPPRLPRPRPRPTPVPRP, the “shrunken log2 fold change” value stood at 0.234.

Consider RRIRMRPPRLPRPRPRPIKPPRP, for which the “shrunken log2 fold change” value was -0.231.

Consider RRIRCRPPRLPRPRPRPISFPRP, for which the “shrunken log2 fold change” value was -0.113.

Consider RRIRVRPPRLPRPRPRPMFPPRP, for which the “shrunken log2 fold change” value was 0.086.

Consider RRIRGRPPRLPRPRPRPNWIPRP, for which the “shrunken log2 fold change” value was -0.034.

For RRIRPRPPRLPRPRPRPLQWPRP, the “shrunken log2 fold change” value was -0.037.

The values above are taken from the supplement of paper PMC9112550, “Optimization of the antimicrobial peptide Bac7 by deep mutational scanning” (BMC Biology, 2022).
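Note: peptides expressed intracellularly from a pBAD plasmid library in pooled LB shake-flask culture, induced with 0.3% L-arabinose, DNA abundance read by NGS, three biological replicates, DESeq2 with apeglm shrinkage.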
